Publication PMC4911334

Target: minimal functional rat TRPV1 construct, tetramer reconstituted in lipid nanodisc (rat) (UniProt O35433)
Assay: cryo-EM structure

UniProt O35433, sequence (O35433 whole entry): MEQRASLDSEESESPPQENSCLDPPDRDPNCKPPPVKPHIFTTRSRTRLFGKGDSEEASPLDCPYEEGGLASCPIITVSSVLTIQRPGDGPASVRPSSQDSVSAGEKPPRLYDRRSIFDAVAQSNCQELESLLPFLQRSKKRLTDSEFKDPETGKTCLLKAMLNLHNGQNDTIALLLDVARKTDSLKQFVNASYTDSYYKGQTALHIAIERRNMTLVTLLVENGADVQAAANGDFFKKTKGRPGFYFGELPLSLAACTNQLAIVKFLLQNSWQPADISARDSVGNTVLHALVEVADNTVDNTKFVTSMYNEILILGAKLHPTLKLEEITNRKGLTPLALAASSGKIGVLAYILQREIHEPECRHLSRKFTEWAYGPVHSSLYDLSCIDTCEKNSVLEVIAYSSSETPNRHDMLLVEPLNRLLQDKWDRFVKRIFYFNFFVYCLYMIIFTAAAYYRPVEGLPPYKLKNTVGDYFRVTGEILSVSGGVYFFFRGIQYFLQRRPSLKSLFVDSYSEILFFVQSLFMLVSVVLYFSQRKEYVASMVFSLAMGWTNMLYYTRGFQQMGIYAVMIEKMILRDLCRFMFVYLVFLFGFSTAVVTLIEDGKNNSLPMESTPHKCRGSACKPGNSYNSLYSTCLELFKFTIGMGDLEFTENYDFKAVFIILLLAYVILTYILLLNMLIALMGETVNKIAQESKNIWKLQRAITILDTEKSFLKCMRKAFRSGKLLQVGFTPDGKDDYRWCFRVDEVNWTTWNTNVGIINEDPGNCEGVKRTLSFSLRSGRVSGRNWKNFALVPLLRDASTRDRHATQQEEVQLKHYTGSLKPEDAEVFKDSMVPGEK

B1: double-knot toxin (DkTx) (peptide)
chain: DCAKEGEVCSWGKKCCDLDNFYCPMEFIPHCKKYKPYVPVTTNCAKEGEVCGWGSKCCHGLDCPLAFIPYCEKYRGRND
In the case of B1, the stoichiometry N (DkTx per TRPV1 tetramer) is reported as 2.
